Experimental data as given in patent US20100055103A1 (published 2010).
Substitutions are numbered along the chain they refer to. In names and notes the source's numbering stands. Like-named read-outs stand apart in the source and are kept apart here.

Columns and labels:
Assay in all cases: BIAcore
[1] = target: T1, Human IL-17F (R&D Systems, cat #1335-IL-025/CF) (UniProt Q96PD4 31-163)
T1 chain: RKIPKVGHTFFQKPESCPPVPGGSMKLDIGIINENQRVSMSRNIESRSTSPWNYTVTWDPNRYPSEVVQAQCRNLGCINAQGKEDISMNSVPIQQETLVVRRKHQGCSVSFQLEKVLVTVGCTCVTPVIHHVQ

[2] = target: T2, Human IL-17A (R&D Systems, cat #317-IL-050/CF) (UniProt Q16552 20-155)
T2 sequence (Q16552 20-155): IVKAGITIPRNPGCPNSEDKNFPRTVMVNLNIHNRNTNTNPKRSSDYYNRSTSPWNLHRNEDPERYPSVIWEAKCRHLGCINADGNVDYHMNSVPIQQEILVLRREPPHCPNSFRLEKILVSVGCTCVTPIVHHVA

[3] = target: T3, Recombinant human IL-17A/F heterodimer (UniProt Q16552 24-155; Q96PD4 31-163)
[4] = target: T1, Human IL-17F (R&D Systems, cat …)
Bi-specific = target: Bi-specific
[5] = target: T1, Human IL-17F (R&D Systems, cat …)
[6] = target: T2, Human IL-17A (R&D Systems, cat …); remark: listed apart in the source
[7] = target: T1, Human IL-17F (R&D Systems, cat …)
[8] = target: T3, Recombinant human IL-17A/F heterodimer; remark: listed apart in the source
rhesus IL17A (PUR17200) = target: rhesus IL17A (PUR17200)
[9] = target: T2, Human IL-17A (R&D Systems, cat …); remark: listed apart in the source
[10] = target: T3, Recombinant human IL-17A/F heterodimer; remark: listed apart in the source
cyno IL17F [11] = target: cyno IL17F
cyno IL17F [12] = target: cyno IL17F; remark: listed apart in the source

B1: YW279.1.20 (antibody, V domains shown)
VH: EVQLVESGGGLVQPGGSLRLSCAASGFSFTSYMMSWVRQAPGKGLEWVSTIYPESGATDYADSVKGRFTISADTSKNTAYLQMNSLRAEDTAVYYCAREGYYYSTSIKYYPWFDYWGQGTLVTVSS
VL: DIQMTQSPSSLSASVGDRVTITCRASQRIKRYLAWYQQKPGKAPKLLIYGASSRASGVPSRFSGSGSGTDFTLTISSLQPEDFATYYCQQRFSQHITFGQGTKVEIKR
- Kd [1]: 1.59 nM

B2: YW279.1.22 (antibody, V domains shown)
VH: B1 VH with T30P, M33F, M34I, T50M, E54V, D59V
VL: B1 VL with R28S, K30S, R31S, F92Y, Q94L, H95P
- Kd [2]: 0.118 nM
- Kd [1]: 1.76 nM
- Kd [3]: 0.69 nM

B3: YW279.1.21 (antibody, V domains shown)
VH: B1 VH
VL: B1 VL with R28S, K30S, R31S, F92Y, Q94W, I96T
- Kd [2]: 5.09 nM
- Kd [1]: 0.0823 nM
- Kd [3]: 11.8 nM

B4: YW265.01 (antibody, V domains shown)
VL: B1 VL with R28S, K30S, R31S, R91Y, F92Y, Q94S, H95P, I96L
VH: EVQLVESGGGLVQPGGSLRLSCAASGYSFTSPYISWVRQAPGKGLEWVASIFYYSGATDYADSVKGRFTISADTSKNTAYLQMNSLRAEDTAVYYCARGGYGYNQWFYSIYQSYFDYWGQ
- Kd [4]: 0.62 nM

B5: IL17F (ligand)
chain: T1 chain
- Kd (Bi-specific): 0.71 nM

B6: YW278.15.9 (antibody, V domains shown)
VH: EVQLVESGGGLVQPGGSLRLSCAASGFTFTDYDISWVRQAPGKGLEWVASIDPYEGYTYYADSVKGRFTISADTSKNTAYLQMNSLRAEDTAVYYCARYLYWSYVMDYWGQGTLVTVSS
VL: DIQMTQSPSSLSASVGDRVTITCRASQDVSTAVAWYQQKPGKAPKLLIYSASFLYSGVPSRFSGSGSGTDFTLTISSLQPEDFATYYCQQSQNPQTTFGQGTKVEIKR
- Kd [2]: 0.0155 nM
- Kd [1]: 0.0181 nM
- Kd [3]: 0.0229 nM

B7: YW278.15.18.C55A (antibody, V domains shown)
VH: B6 VH with D52S, Y54P, E55D, G56A
VL: B6 VL with Q92Y, N93T, P94A, Q95K, T96L
- Kd [5]: 0.0186 nM

B8: YW278.15.3 (antibody, V domains shown)
VH: B6 VH with D52S, Y54S, E55D
VL: DIQMTQSPSSLSASVGDRVTITCRASQVISSSLAWYQQKPGKAPKLLIYGASFFYSGVPSRFSGSGSGTDFTLTISSLQPEDFATYYCQQHNDLPLTFGQGTKVEIKR
- Kd [2]: 0.0242 nM
- Kd [1]: 0.115 nM
- Kd [3]: 0.0935 nM
- Kd [6]: 0.0152 nM
- Kd [7]: 0.0283 nM
- Kd [8]: 0.0167 nM

B9: YW278.15.18 (antibody, V domains shown)
VH: B6 VH with D52S, Y54P, E55D, G56C
VL: B6 VL with Q92Y, N93T, P94A, Q95K, T96L
- Kd (rhesus IL17A (PUR17200)): 0.0381 nM
- Kd [9]: 0.0189 nM
- Kd [5]: 0.0291 nM
- Kd [10]: 0.0225 nM
- Kd (cyno IL17F [11]): 0.0861 nM
- Kd (cyno IL17F [12]): 0.0632 nM
- Kd [6]: 0.0137 nM
- Kd [7]: 0.0135 nM
- Kd [8]: 0.014 nM

B10: YW278.15.18.C55S (antibody, V domains shown)
VH: B6 VH with D52S, Y54P, E55D, G56S
VL: B6 VL with Q92Y, N93T, P94A, Q95K, T96L
- Kd [5]: 0.019 nM

B11: YW278.15.2.D54E (antibody, V domains shown)
VH: B6 VH with T28S, T30I, D52S
VL: B6 VL with S91Y, Q92Y, N93I, P94Y, Q95P, T96A
- Kd [1]: 0.012 nM

B12: YW278.15.2 (antibody, V domains shown)
VH: B6 VH with T28S, T30I, D52S, E55D
VL: B6 VL with S91Y, Q92Y, N93I, P94Y, Q95P, T96A
- Kd (cyno IL17F [12]): 0.209 nM
- Kd [6]: 0.0111 nM
- Kd [7]: 0.0315 nM
- Kd [8]: 0.0104 nM
